Assay [1] has as its target T1, MRA-hIgA (human).
T1 construct: also called human IgA; recombinant of human IgA
Description: SPR (Biacore T200), antibody captured on Protein A/G, MRA-hIgA as analyte, 37 C, pH 7.4, 1.2 mM Ca, 1:1 binding model. On the procedure: (§1) Using Biacore™ T200 surface plasma resonance assay (GE Healthcare), the obtained antibodies were assessed for their binding activity to human IgA (dissociation constant KD (M)). The measurement was carried out using as a running buffer 0.05% Tween 20® (polyoxyethylene (20) sorbitan monolaurate), 20 mmol/l ACES, 150 mmol/l NaCl (pH 7.4 or pH 5.8) containing 3 μM or 1.2 mM CaCl₂, or 0.05% Tween 20®, 20 mmol/l ACES, 150 mmol/l NaCl (pH 8.0) containing 0.1 μM or 10 mM CaCl₂.
(§2) After an adequate amount of recombinant Protein A/G (Thermo Scientific) was immobilized onto the Sensor chip CM5 (GE Healthcare) by an amino coupling method, antibodies were allowed to bind onto the sensor chip. An appropriate concentration of MRA-hIgA (described in (1-1)) was injected as an analyte to interact with antibodies on the sensor chip. Then, the sensor chip was regenerated by injecting 10 mmol/l glycine-HCl, pH 1.5. The measurement was carried out at 37° C. From the assay result, the dissociation constant KD (M) was calculated based on curve-fitting analysis and equilibrium constant analysis using Biacore™ T200 Evaluation Software (GE Healthcare).

For assay [2], the target named is T1, MRA-hIgA. Kind of assay: SPR (Biacore T200), antibody captured on Protein A/G, MRA-hIgA as analyte, 37 C, pH 5.8, 3 uM Ca, steady state affinity. On the procedure:
as §1, §2

Assay [3] deals with T1, MRA-hIgA. Description: SPR (Biacore T200), antibody captured on Protein A/G, MRA-hIgA as analyte, 37 C, pH 7.4, 3 uM Ca, steady state affinity. The protocol: as §1, §2
Background: In SPR one partner is held on a chip, and binding of the other changes the refractive index at the surface.

For assay [4], the target named is T1, MRA-hIgA. Description: SPR (Biacore T200), antibody captured on Protein A/G, MRA-hIgA as analyte, 37 C, pH 5.8, 1.2 mM Ca, steady state affinity. The protocol:
as §1, §2

For assay [5], the target named is T2, GC-hIgA-FLAG (human).
T2 construct: Recombinant human IgA with a FLAG tag, not treated with SPDP; also called unaggregated hIgA; unaggregated human IgA
T2 sequence (VH, as listed by the source, chain 1 of 2): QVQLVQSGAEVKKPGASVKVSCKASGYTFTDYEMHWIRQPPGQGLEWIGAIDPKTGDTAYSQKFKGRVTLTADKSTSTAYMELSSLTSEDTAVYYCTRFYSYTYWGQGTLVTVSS
T2 sequence (VL, as listed by the source, chain 2 of 2): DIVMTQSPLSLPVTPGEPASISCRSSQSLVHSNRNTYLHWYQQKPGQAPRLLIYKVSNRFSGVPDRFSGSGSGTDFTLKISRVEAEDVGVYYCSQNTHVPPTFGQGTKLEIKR
Kind of assay: SPR (Biacore T200), antibody captured on Protein A/G on a CM5 chip, monomeric IgA injected as analyte, 37 C, running buffer pH 7.4 with 1.2 mM Ca; response normalized to capture ligand = 100 RU; analyte concentration not given [i]. On the procedure:
The obtained antibodies were assessed for their binding to unaggregated hIgA and aggregated hIgA using Biacore™ T200 surface plasma resonance assay (GE Healthcare). The measurement was carried out using as a running buffer, 0.05% Tween 20®, 20 mmol/ACES, 150 mmol/l NaCl (pH 7.4 and pH 5.8) containing 3 μM or 1.2 mM CaCl₂.
After an adequate amount of recombinant Protein A/G (Thermo Scientific) was immobilized onto Sensor chip CM5 (GE Healthcare) by an amino coupling method, antibodies were allowed to bind onto the sensor chip. An appropriate concentration of hIgA (described in Example 1) was injected as an analyte to interact with antibodies on the sensor chip. Then, the sensor chip was regenerated by injecting 10 mmol/L Glycine-HCl, pH 1.5. The measurement was carried out at 37° C.

T1 sequence (VH, as listed by the source): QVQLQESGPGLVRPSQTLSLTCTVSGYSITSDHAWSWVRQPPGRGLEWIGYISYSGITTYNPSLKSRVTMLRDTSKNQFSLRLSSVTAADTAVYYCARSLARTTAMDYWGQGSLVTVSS

B1: GA2-IgG1 (antibody, V domains shown)
VH: QVQLVQSGAEVKKPGSSVKVSCKASGGTFSSYAISWVRQAPGQGLEWMGGIIPIFGTANYAQKFQGRVTITADESTSTAYMELSSLRSEDTAVYYCARPRWETAISSDAFDIWGQGTMVTVSS
VL: DIQMTQSPSSLSASVGDRVTITCRASQSISDDLNWYQQKPGKAPKLLIYEASNLQSGVPSRFSGSGSGTDFTLTISSLQPEDFATYYCQQHSSSPLTFGQGTKVEIKR
notes: also called anti-hIgA antibody; anti-human IgA antibody
The Kd is the concentration at which binding is half-saturated. A lower Kd goes with a tighter complex. For B1, the Kd came to 39 nM in assay [1], 5 µM in assay [2], 6.7 µM in assay [3] and 4 µM in assay [4]. The binding result in assay [5] is reported as “binds”.

Values taken from patent publication US20210122812A1 (Chugai, published 2021).
